The chains are these.
B1: TRIM43 (parent)
chain: YQEIFQQLQRSWVKMDQKSKHLKE
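Note: lentivirally expressed fusions sorted by FACS into six bins by GFP to DsRed ratio, PSI derived from sequencing read proportions per bin multiplied by bin number.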

Variants of B1 are the subject of this data set. Nature of the data set: protein stability index of a GFP-peptide fusion (GPS, HEK-293T) (PSI 1-6); higher = more stable. The following applies: c terminus: a fixed tail appended.
As for YQEIFQQLQRSWVKMDQKSKHMKE [L22M], the protein stability index was 2.13.
With YQEIFQQLQRSWVKMDQKSKHAKE [L22A] the figure was 2.22.
With YQEIFQQLQRSWVKMDQKSKHTKE [L22T] the figure was 2.62; with YQEIFQQLQRSWVKMDQKSKHNKE [L22N], 2.53; with YQEIFQQLQRSWVKMDQKSKHGKE [L22G], 2.6.
Take YQEIFQQLQRSWVKMDQKSKHQKE [L22Q]: the protein stability index was determined as 2.91.
The value for YQEIFQQLQRSWVKMDQKSKHWKE [L22W] was 1.65.
With YQEIFQQLQRSWVKMDQKSKHDKE [L22D] the figure was 3.28; with YQEIFQQLQRSWVKMDQKSKHVKE [L22V], 2.39; with YQEIFQQLQRSWVKMDQKSKHYKE [L22Y], 1.92.
Take YQEIFQQLQRSWVKMDQKSKHCKE [L22C]: the protein stability index was determined as 2.6.
With YQEIFQQLQRSWVKMDQKSKHPKE [L22P] the figure was 2.94; with YQEIFQQLQRSWVKMDQKSKHHKE [L22H], 2.35; with YQEIFQQLQRSWVKMDQKSKHFKE [L22F], 1.91.
With YQEIFQQLQRSWVKMDQKSKHKKE [L22K] the figure was 2.45; with YQEIFQQLQRSWVKMDQKSKHRKE [L22R], 2.75; with YQEIFQQLQRSWVKMDQKSKHEKE [L22E], 3.27.
The value for YQEIFQQLQRSWVKMDQKSKHIKE [L22I] was 2.21; that for YQEIFQQLQRSWVKMDQKSKLLKE [H21L] was 1.91; that for YQEIFQQLQRSWVKMDQKSKFLKE [H21F] was 1.94.
For the variant YQEIFQQLQRSWVKMDQKSKNLKE [H21N], the protein stability index stood at 2.59.
The value for YQEIFQQLQRSWVKMDQKSKKLKE [H21K] was 2.04.
With YQEIFQQLQRSWVKMDQKSKMLKE [H21M] the figure was 2.5; with YQEIFQQLQRSWVKMDQKSKSLKE [H21S], 2.37; with YQEIFQQLQRSWVKMDQKSKALKE [H21A], 2.23.
In the case of YQEIFQQLQRSWVKMDQKSKQLKE [H21Q], the protein stability index is 2.28.
The value for YQEIFQQLQRSWVKMDQKSKRLKE [H21R] was 2.53; that for YQEIFQQLQRSWVKMDQKSKTLKE [H21T] was 2.28; that for YQEIFQQLQRSWVKMDQKSKCLKE [H21C] was 2.65.
The value for YQEIFQQLQRSWVKMDQKSKWLKE [H21W] was 1.53.
For YQEIFQQLQRSWVKMDQKSKYLKE [H21Y], the protein stability index was 2.27.
As to YQEIFQQLQRSWVKMDQKSKVLKE [H21V], the protein stability index was found to be 1.79.
With YQEIFQQLQRSWVKMDQKSKPLKE [H21P] the figure was 1.64.
The value for YQEIFQQLQRSWVKMDQKSKILKE [H21I] was 2.09; that for YQEIFQQLQRSWVKMDQKSKGLKE [H21G] was 2.33.
The value for YQEIFQQLQRSWVKMDQKSKELKE [H21E] was 2.68; that for YQEIFQQLQRSWVKMDQKSKDLKE [H21D] was 2.56.
As to YQEIFQQLQRSWVKMDQKIKHLKE [S19I], the protein stability index came out at 3.05.
The value for YQEIFQQLQRSWVKMDQKDKHLKE [S19D] was 2.68; that for YQEIFQQLQRSWVKMDQKQKHLKE [S19Q] was 2.14.
Take YQEIFQQLQRSWVKMDQKWKHLKE [S19W]: the protein stability index was found to be 2.56.
In the case of YQEIFQQLQRSWVKMDQKNKHLKE [S19N], the protein stability index was determined as 2.35.
With YQEIFQQLQRSWVKMDQKHKHLKE [S19H], the protein stability index was 1.83.
Consider YQEIFQQLQRSWVKMDQKTKHLKE [S19T], for which the protein stability index is 2.86.
The value for YQEIFQQLQRSWVKMDQKVKHLKE [S19V] was 2.12; that for YQEIFQQLQRSWVKMDQKGKHLKE [S19G] was 1.86.
With YQEIFQQLQRSWVKMDQKEKHLKE [S19E] the figure was 2.29.
Consider YQEIFQQLQRSWVKMDQKFKHLKE [S19F], for which the protein stability index turned out to be 1.95.
As for YQEIFQQLQRSWVKMDQKMKHLKE [S19M], the protein stability index amounted to 2.44.
The value for YQEIFQQLQRSWVKMDQKLKHLKE [S19L] was 3.31; that for YQEIFQQLQRSWVKMDQKRKHLKE [S19R] was 1.98.
Turning to YQEIFQQLQRSWVKMDQKPKHLKE [S19P], the protein stability index turned out to be 2.3.
In the case of YQEIFQQLQRSWVKMDQKAKHLKE [S19A], the protein stability index amounted to 3.09.
With YQEIFQQLQRSWVKMDQKCKHLKE [S19C] the figure was 1.99.
In the case of YQEIFQQLQRSWVKMDQKKKHLKE [S19K], the protein stability index amounted to 1.77.
With YQEIFQQLQRSWVKMDQKYKHLKE [S19Y] the figure was 3; with YQEIFQQLQRSWVKMDQKSKHLDE [K23D], 2.41; with YQEIFQQLQRSWVKMDQKSKHLGE [K23G], 2.54.
The value for YQEIFQQLQRSWVKMDQKSKHLCE [K23C] was 1.74; that for YQEIFQQLQRSWVKMDQKSKHLHE [K23H] was 1.79.
Regarding YQEIFQQLQRSWVKMDQKSKHLYE [K23Y], the protein stability index stood at 1.58.
Turning to YQEIFQQLQRSWVKMDQKSKHLWE [K23W], the protein stability index turned out to be 2.33.
As for YQEIFQQLQRSWVKMDQKSKHLLE [K23L], the protein stability index was determined as 1.66.
In the case of YQEIFQQLQRSWVKMDQKSKHLNE [K23N], the protein stability index was determined as 2.03.
On to YQEIFQQLQRSWVKMDQKSKHLVE [K23V], for which the protein stability index worked out at 1.92.
For the variant YQEIFQQLQRSWVKMDQKSKHLEE [K23E], the protein stability index was 2.6.
As to YQEIFQQLQRSWVKMDQKSKHLSE [K23S], the protein stability index was determined as 2.15.
The value for YQEIFQQLQRSWVKMDQKSKHLPE [K23P] was 2.08; that for YQEIFQQLQRSWVKMDQKSKHLQE [K23Q] was 2.11.
The value for YQEIFQQLQRSWVKMDQKSKHLTE [K23T] was 2.14.
The value for YQEIFQQLQRSWVKMDQKSKHLIE [K23I] was 3.31; that for YQEIFQQLQRSWVKMDQKSKHLAE [K23A] was 2.92.
On to YQEIFQQLQRSWVKMDQKSKHLME [K23M], for which the protein stability index worked out at 2.33.
With YQEIFQQLQRSWVKMDQKSKHLRE [K23R] the figure was 1.22.
The value for YQEIFQQLQRSWVKMDQKSKHLFE [K23F] was 1.47.
The value for YQEIFQQLQRSWVKMDQHSKHLKE [K18H] was 2.04.
Regarding YQEIFQQLQRSWVKMDQWSKHLKE [K18W], the protein stability index came to 1.77.
On to YQEIFQQLQRSWVKMDQTSKHLKE [K18T], for which the protein stability index was 2.71.
For the variant YQEIFQQLQRSWVKMDQGSKHLKE [K18G], the protein stability index was 2.4.
With YQEIFQQLQRSWVKMDQVSKHLKE [K18V] the figure was 1.69; with YQEIFQQLQRSWVKMDQMSKHLKE [K18M], 1.64; with YQEIFQQLQRSWVKMDQPSKHLKE [K18P], 2.1.
The value for YQEIFQQLQRSWVKMDQCSKHLKE [K18C] was 1.94.
Consider YQEIFQQLQRSWVKMDQESKHLKE [K18E], for which the protein stability index is 2.46.
With YQEIFQQLQRSWVKMDQQSKHLKE [K18Q], the protein stability index was found to be 2.4.
With YQEIFQQLQRSWVKMDQSSKHLKE [K18S] the figure was 2.
With YQEIFQQLQRSWVKMDQNSKHLKE [K18N] the figure was 2.34; with YQEIFQQLQRSWVKMDQASKHLKE [K18A], 2.4.
For YQEIFQQLQRSWVKMDQISKHLKE [K18I], the protein stability index came to 1.37.
Take YQEIFQQLQRSWVKMDQFSKHLKE [K18F]: the protein stability index is 1.44.
Turning to YQEIFQQLQRSWVKMDQLSKHLKE [K18L], the protein stability index was 2.31.
Take YQEIFQQLQRSWVKMDQDSKHLKE [K18D]: the protein stability index worked out at 2.87.
With YQEIFQQLQRSWVKMDQRSKHLKE [K18R] the figure was 2.57.
Take YQEIFQQLQRSWVKMDQYSKHLKE [K18Y]: the protein stability index worked out at 1.86.
